Data taken from patent US20240132593A1 (published 2024).
“And” between values parts separate entries of the source, which are not always exact repeats. Identical values can stand only once. Like-named read-outs stand apart in the source and are kept apart here.

Tests used:
FCGR2A/CD32A (167R) = test: AlphaLISA FcγR2a binding assay
FCGR1/CD64 = molecular target: T1, FCGR1/CD64 (UniProt P12314 16-288, biotinylated (sites not given)); test: AlphaLISA FcγR1 binding assay
T1 chain: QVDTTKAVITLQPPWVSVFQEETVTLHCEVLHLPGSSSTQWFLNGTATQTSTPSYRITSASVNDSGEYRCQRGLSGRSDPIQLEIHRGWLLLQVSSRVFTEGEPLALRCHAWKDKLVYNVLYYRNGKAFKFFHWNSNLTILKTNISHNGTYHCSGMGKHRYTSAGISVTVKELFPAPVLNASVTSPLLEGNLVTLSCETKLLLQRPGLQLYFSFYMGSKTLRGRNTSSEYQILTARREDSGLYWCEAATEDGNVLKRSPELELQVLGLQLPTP

FCGR2A/CD32A (167H) = test: AlphaLISA FcγR2a binding assay
FcRn = FcRn (UniProt P55899 24-297; P61769 21-119, biotinylated (sites not given)); test: AlphaLISA FcRn binding assay
[1] = molecular target: T2, FcRn receptor (biotinylated, AlphaLisa binding kit Perkin Elmer #AL3095C) (UniProt P55899 24-297; P61769 21-119, biotinylated (sites not given)); test: AlphaLISA FcRn binding assay
[2] = molecular target: T3, immunoglobulin gamma Fc receptor 1 (FcγR1) (biotinylated, AlphaLisa binding kit Perkin Elmer #AL3081C) (UniProt P12314 16-288, biotinylated (sites not given)); test: AlphaLISA FcγR1 binding assay
T3 chain: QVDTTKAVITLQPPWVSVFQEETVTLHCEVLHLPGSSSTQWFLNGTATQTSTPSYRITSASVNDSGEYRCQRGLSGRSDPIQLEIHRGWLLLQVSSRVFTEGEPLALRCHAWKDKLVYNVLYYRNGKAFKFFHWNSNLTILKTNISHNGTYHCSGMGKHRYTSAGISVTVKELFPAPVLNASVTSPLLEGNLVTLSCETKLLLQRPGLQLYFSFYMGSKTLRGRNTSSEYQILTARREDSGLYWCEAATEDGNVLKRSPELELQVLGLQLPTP

[3] = molecular target: T2, FcRn receptor (biotinylated, AlphaLisa …); test: AlphaLISA FcRn binding assay; remark: listed apart in the source
[4] = molecular target: T3, immunoglobulin gamma Fc receptor 1 …; test: AlphaLISA FcγR1 binding assay

B1: VSTB174 (WT) (antibody)
chain 1: not shown
chain 2: DIQMTQSPSSLSASVGDRVTITCRASQSIDTRLNWYQQKPGKAPKLLIYSASSLQSGVPSRFSGSGSGTDFTLTISSLQPEDFATYYCQQSAYNPITFGQGTKVEIKRTVAAPSVFIFPPSDEQLKSGTASVVCLLNNFYPREAKVQWKVDNALQSGNSQESVTEQDSKDSTYSLSSTLTLSKADYEKHKVYACEVTHQGLSSPVTKSFNRGEC
FCGR2A/CD32A (167R)
  EC50: 4.6 µg/mL
FCGR1/CD64
  EC50: 3.6 nM and 0.534 µg/mL
FCGR2A/CD32A (167H)
  EC50: 2.1 µg/mL
FcRn
  EC50: 1.5 µg/mL

B2: Ab No. 420.4(YTE) (antibody)
chain 1: MGWSCIILFLVATATGVHSQLQLQESGPGLVKPSETLSLTCIVSGGSISSSGYYWGWIRQPPGKGLEWIGSIFYSGNTHYNPSLKSRVTIPVDTSKNQFSLKLSSVTAADSAVYYCARRDILTGPFDYWGQGTLVTVSSAASTKGPSVFPLAPCSRSTSESTAALGCLVKDYFPEPVTVSWNSGALTSGVHTFPAVLQSSGLYSLSSVVTVPSSSLGTKTYTCNVDHKPSNTKVDKRVESKYGPPCPSCPAPEFLGGPSVFLFPPKPKDTLYITREPEVTCVVVDVSQEDPEVQFNWYVDGVEVHNAKTKPREEQFNSTYRVVSVLTVLHQDWLNGKEYKCKVSNKGLPSSIEKTISKAKGQPREPQVYTLPPSQEEMTKNQVSLTCLVKGFYPSDIAVEWESNGQPENNYKTTPPVLDSDGSFFLYSRLTVDKSRWQEGNVFSCSVMHEALHNHYTQKSLSLSLGK
chain 2: not shown
[1]
  EC50: 0.486 nM and 0.0729 µg/mL

B3: Ab No. 420.4 (YTE) (antibody)
chain 1: MGWSCIILFLVATATGVHSQLQLQESGPGLVKPSETLSLTCIVSGGSISSSGYYWGWIRQPPGKGLEWIGSIFYSGNTHYNPSLKSRVTIPVDTSKNQFSLKLSSVTAADSAVYYCARRDILTGPFDYWGQGTLVTVSSAASTKGPSVFPLAPCSRSTSESTAALGCLVKDYFPEPVTVSWNSGALTSGVHTFPAVLQSSGLYSLSSVVTVPSSSLGTKTYTCNVDHKPSNTKVDKRVESKYGPPCPSCPAPEFLGGPSVFLFPPKPKDTLYITREPEVTCVVVDVSQEDPEVQFNWYVDGVEVHNAKTKPREEQFNSTYRVVSVLTVLHQDWLNGKEYKCKVSNKGLPSSIEKTISKAKGQPREPQVYTLPPSQEEMTKNQVSLTCLVKGFYPSDIAVEWESNGQPENNYKTTPPVLDSDGSFFLYSRLTVDKSRWQEGNVFSCSVMHEALHNHYTQKSLSLSLGK
chain 2: not shown
[2]
  EC50: 139 nM and 20.8 µg/mL

B4: Ab No. 150.1 (YTE) (antibody)
light: not shown
heavy: QVQLQESGPGLVKPSETLSLTCTVSGGSISSYYWSWIRQPPGKGLEWIGYIYYSGSTNYNPSLKSRVTISVDTSKSQFSLKLSSVTAADTAVYYCARDIPAFAFDIWGQGTMVIVSSASTKGPSVFPLAPSSKSTSGGTAALGCLVKDYFPEPVTVSWNSGALTSGVHTFPAVLQSSGLYSLSSVVTVPSSSLGTQTYICNVNHKPSNTKVDKKVEPKSCDKTHTCPPCPAPELLGGPSVFLFPPKPKDTLYITREPEVTCVVVDVSHEDPEVKFNWYVDGVEVHNAKTKPREEQYNSTYRVVSVLTVLHQDWLNGKEYKCKVSNKALPAPIEKTISKAKGQPREPQVYTLPPSRDELTKNQVSLTCLVKGFYPSDIAVEWESNGQPENNYKTTPPVLDSDGSFFLYSKLTVDKSRWQQGNVFSCSVMHEALHNHYTQKSLSLSPGK
FCGR2A/CD32A (167R)
  EC50: 275 nM and 41.3 µg/mL
FCGR2A/CD32A (167H)
  EC50: 18.3 µg/mL and 122 nM

B5: Antibody No. 150.1 (antibody)
light: not shown
heavy: QVQLQESGPGLVKPSETLSLTCTVSGGSISSYYWSWIRQPPGKGLEWIGYIYYSGSTNYNPSLKSRVTISVDTSKSQFSLKLSSVTAADTAVYYCARDIPAFAFDIWGQGTMVIVSSASTKGPSVFPLAPSSKSTSGGTAALGCLVKDYFPEPVTVSWNSGALTSGVHTFPAVLQSSGLYSLSSVVTVPSSSLGTQTYICNVNHKPSNTKVDKKVEPKSCDKTHTCPPCPAPELLGGPSVFLFPPKPKDTLYITREPEVTCVVVDVSHEDPEVKFNWYVDGVEVHNAKTKPREEQYNSTYRVVSVLTVLHQDWLNGKEYKCKVSNKALPAPIEKTISKAKGQPREPQVYTLPPSRDELTKNQVSLTCLVKGFYPSDIAVEWESNGQPENNYKTTPPVLDSDGSFFLYSKLTVDKSRWQQGNVFSCSVMHEALHNHYTQKSLSLSPGK
[3]
  EC50: 0.142 µg/mL
[4]
  EC50: 5.8 nM and 0.868 µg/mL

B6: Ab No. 420.1 (YTE) (antibody)
chain 1: MGWSCIILFLVATATGVHSQLQLQESGPGLVKPSETLSLTCIVSGGSISSSGYYWGWIRQPPGKGLEWIGSIFYSGNTHYNPSLKSRVTIPVDTSKNQFSLKLSSVTAADSAVYYCARRDILTGPFDYWGQGTLVTVSSAASTKGPSVFPLAPSSKSTSGGTAALGCLVKDYFPEPVTVSWNSGALTSGVHTFPAVLQSSGLYSLSSVVTVPSSSLGTQTYICNVNHKPSNTKVDKKVEPKSCDKTHTCPPCPAPELLGGPSVFLFPPKPKDTLYITREPEVTCVVVDVSHEDPEVKFNWYVDGVEVHNAKTKPREEQYNSTYRVVSVLTVLHQDWLNGKEYKCKVSNKALPAPIEKTISKAKGQPREPQVYTLPPSRDELTKNQVSLTCLVKGFYPSDIAVEWESNGQPENNYKTTPPVLDSDGSFFLYSKLTVDKSRWQQGNVFSCSVMHEALHNHYTQKSLSLSPGK
chain 2: not shown
[2]
  EC50: 14.7 nM and 2.2 µg/mL

B7: Ab No. 420.1(YTE) (antibody)
chain 1: MGWSCIILFLVATATGVHSQLQLQESGPGLVKPSETLSLTCIVSGGSISSSGYYWGWIRQPPGKGLEWIGSIFYSGNTHYNPSLKSRVTIPVDTSKNQFSLKLSSVTAADSAVYYCARRDILTGPFDYWGQGTLVTVSSAASTKGPSVFPLAPSSKSTSGGTAALGCLVKDYFPEPVTVSWNSGALTSGVHTFPAVLQSSGLYSLSSVVTVPSSSLGTQTYICNVNHKPSNTKVDKKVEPKSCDKTHTCPPCPAPELLGGPSVFLFPPKPKDTLYITREPEVTCVVVDVSHEDPEVKFNWYVDGVEVHNAKTKPREEQYNSTYRVVSVLTVLHQDWLNGKEYKCKVSNKALPAPIEKTISKAKGQPREPQVYTLPPSRDELTKNQVSLTCLVKGFYPSDIAVEWESNGQPENNYKTTPPVLDSDGSFFLYSKLTVDKSRWQQGNVFSCSVMHEALHNHYTQKSLSLSPGK
chain 2: not shown
[1]
  EC50: 0.376 nM and 0.0565 µg/mL
